Test [1] addresses H278N mutant mouse delta opioid receptor (mouse) (UniProt P32300). Description: competition vs 3H-naltrindole, COS-7 membranes.
In test [2] the target is mouse kappa opioid receptor (mORK1) (mouse) (UniProt P33534). Description: competition vs [3H]U-69,593, COS-1 membranes.
Test [3] deals with rat µ opioid receptor (rat) (UniProt P33535). Description: competition vs [3H]DAMGO, COS-7 membranes.

As for D-Ala2-deltorphin II (peptide), in test [1], the inhibition constant (Ki) (in general, the equilibrium dissociation constant of an inhibitor or competing ligand from its target) came out at 0.004 µM.

Turning to “[D-Ala2, F5Phe4]Dynorphin (1-17)NH2 (from UniProt P01213 207-223) (peptide)”, in test [2], the IC50 (usually the concentration at which inhibition is half-maximal) was 0.0002 µM.

For the substance morphiceptin (peptide), in test [3], the Ki was determined as 0.056 µM.

Consider PLO17 (peptide), for which, in test [3], the Ki was 0.03 µM.

In turn, “[D-Ala2, F5Phe4]Dynorphin (1-13)NH2 (from UniProt P01213 207-219) (peptide)” gave an IC50 in test [2] of 0.019 µM.

dermorphin (peptide): the Ki in test [3] worked out at 0.00033 µM.
